From patent US20230365662A1
Several values for one entry are separate records, joined by “and”; a condition that tells them apart may be missing. Equal entries are not always repeated.

Each binder was assayed against HRgpA-6H (Porphyromonas gingivalis) (UniProt P28784) (assay: ELISA, Fab FASEBA supernatant on coated HRgpA-6H).
UniProt P28784, sequence (P28784 228-991 limits assumed): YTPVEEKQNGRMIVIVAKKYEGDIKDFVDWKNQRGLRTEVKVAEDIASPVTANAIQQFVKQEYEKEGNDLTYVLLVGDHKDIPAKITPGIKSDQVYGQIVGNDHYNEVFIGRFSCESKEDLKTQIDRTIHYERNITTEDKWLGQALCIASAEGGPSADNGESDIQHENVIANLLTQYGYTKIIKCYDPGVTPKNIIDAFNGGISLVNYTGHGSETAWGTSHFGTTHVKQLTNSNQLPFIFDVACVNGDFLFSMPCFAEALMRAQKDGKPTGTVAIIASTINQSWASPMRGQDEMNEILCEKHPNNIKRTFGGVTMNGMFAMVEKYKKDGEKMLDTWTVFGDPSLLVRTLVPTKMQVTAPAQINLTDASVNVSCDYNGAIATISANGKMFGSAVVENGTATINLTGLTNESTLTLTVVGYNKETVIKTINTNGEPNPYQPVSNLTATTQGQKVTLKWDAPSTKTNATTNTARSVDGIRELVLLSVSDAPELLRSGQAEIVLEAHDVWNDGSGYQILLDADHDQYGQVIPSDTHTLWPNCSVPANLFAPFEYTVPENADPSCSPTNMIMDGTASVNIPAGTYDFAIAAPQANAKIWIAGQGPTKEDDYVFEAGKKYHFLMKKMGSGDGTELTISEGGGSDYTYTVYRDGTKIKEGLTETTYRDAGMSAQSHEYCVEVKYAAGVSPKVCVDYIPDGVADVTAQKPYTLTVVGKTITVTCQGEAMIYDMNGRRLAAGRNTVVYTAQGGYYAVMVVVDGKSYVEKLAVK

Row | Binder | OD450nm | Ratio OD(Variant)/OD(WT)
1 | parental mouse (KB001) Fab FASEBA, VL variant Y97S (Fab, V domains shown) VH: EVQLKQSGPGLVAPSQSLSITCTVSGFSLSIYSVHWVRQPPGKGLEWLGMIWGGGSSDYNSALKSRLSISKDNSKSQVFLKMNSLQTDDTAMYYCARNGNFYAMDYWGQGTSVTVSS VL: QIVLTQSPAIMSASLGERVTMTCTASSSVSSSFLHWYQQKPGSSPQLWIYSTSNLASGVPARFSGSGSGTSYSLTISSMEAEDAATYYCHQYHHSPSIYTFGGGTKLEIK | 0.633 OD450nm | 0.802 ratio to WT
2 | parental mouse (KB001) Fab FASEBA, VL variant T100P (Fab, V domains shown) VH: EVQLKQSGPGLVAPSQSLSITCTVSGFSLSIYSVHWVRQPPGKGLEWLGMIWGGGSSDYNSALKSRLSISKDNSKSQVFLKMNSLQTDDTAMYYCARNGNFYAMDYWGQGTSVTVSS VL: QIVLTQSPAIMSASLGERVTMTCTASSSVSSSFLHWYQQKPGSSPQLWIYSTSNLASGVPARFSGSGSGTSYSLTISSMEAEDAATYYCHQYHHSPYIYPFGGGTKLEIK | 0.46 OD450nm | 0.879 ratio to WT
3 | parental mouse (KB001) Fab FASEBA, VL variant I98L (Fab, V domains shown) VH: EVQLKQSGPGLVAPSQSLSITCTVSGFSLSIYSVHWVRQPPGKGLEWLGMIWGGGSSDYNSALKSRLSISKDNSKSQVFLKMNSLQTDDTAMYYCARNGNFYAMDYWGQGTSVTVSS VL: QIVLTQSPAIMSASLGERVTMTCTASSSVSSSFLHWYQQKPGSSPQLWIYSTSNLASGVPARFSGSGSGTSYSLTISSMEAEDAATYYCHQYHHSPYLYTFGGGTKLEIK | 0.836 OD450nm | 0.955 ratio to WT
4 | parental mouse (KB001) Fab FASEBA, VL variant T100V (Fab, V domains shown) VH: EVQLKQSGPGLVAPSQSLSITCTVSGFSLSIYSVHWVRQPPGKGLEWLGMIWGGGSSDYNSALKSRLSISKDNSKSQVFLKMNSLQTDDTAMYYCARNGNFYAMDYWGQGTSVTVSS VL: QIVLTQSPAIMSASLGERVTMTCTASSSVSSSFLHWYQQKPGSSPQLWIYSTSNLASGVPARFSGSGSGTSYSLTISSMEAEDAATYYCHQYHHSPYIYVFGGGTKLEIK | 0.461 OD450nm and 0.428 OD450nm | 0.881 ratio to WT and 0.818 ratio to WT
5 | parental mouse (KB001) Fab FASEBA, VL variant Y97V (Fab, V domains shown) VH: EVQLKQSGPGLVAPSQSLSITCTVSGFSLSIYSVHWVRQPPGKGLEWLGMIWGGGSSDYNSALKSRLSISKDNSKSQVFLKMNSLQTDDTAMYYCARNGNFYAMDYWGQGTSVTVSS VL: QIVLTQSPAIMSASLGERVTMTCTASSSVSSSFLHWYQQKPGSSPQLWIYSTSNLASGVPARFSGSGSGTSYSLTISSMEAEDAATYYCHQYHHSPVIYTFGGGTKLEIK | 0.662 OD450nm | 0.839 ratio to WT
6 | parental mouse (KB001) Fab FASEBA, VL variant I98R (Fab, V domains shown) VH: EVQLKQSGPGLVAPSQSLSITCTVSGFSLSIYSVHWVRQPPGKGLEWLGMIWGGGSSDYNSALKSRLSISKDNSKSQVFLKMNSLQTDDTAMYYCARNGNFYAMDYWGQGTSVTVSS VL: QIVLTQSPAIMSASLGERVTMTCTASSSVSSSFLHWYQQKPGSSPQLWIYSTSNLASGVPARFSGSGSGTSYSLTISSMEAEDAATYYCHQYHHSPYRYTFGGGTKLEIK | 0.726 OD450nm and 0.722 OD450nm | 0.83 ratio to WT and 0.825 ratio to WT
7 | parental mouse (KB001) Fab FASEBA, VL variant Y97I (Fab, V domains shown) VH: EVQLKQSGPGLVAPSQSLSITCTVSGFSLSIYSVHWVRQPPGKGLEWLGMIWGGGSSDYNSALKSRLSISKDNSKSQVFLKMNSLQTDDTAMYYCARNGNFYAMDYWGQGTSVTVSS VL: QIVLTQSPAIMSASLGERVTMTCTASSSVSSSFLHWYQQKPGSSPQLWIYSTSNLASGVPARFSGSGSGTSYSLTISSMEAEDAATYYCHQYHHSPIIYTFGGGTKLEIK | 0.667 OD450nm | 0.845 ratio to WT
8 | parental mouse (KB001) Fab FASEBA, VL variant Y97R (Fab, V domains shown) VH: EVQLKQSGPGLVAPSQSLSITCTVSGFSLSIYSVHWVRQPPGKGLEWLGMIWGGGSSDYNSALKSRLSISKDNSKSQVFLKMNSLQTDDTAMYYCARNGNFYAMDYWGQGTSVTVSS VL: QIVLTQSPAIMSASLGERVTMTCTASSSVSSSFLHWYQQKPGSSPQLWIYSTSNLASGVPARFSGSGSGTSYSLTISSMEAEDAATYYCHQYHHSPRIYTFGGGTKLEIK | 0.769 OD450nm | 0.975 ratio to WT
9 | parental mouse (KB001) Fab FASEBA, VL variant I98M (Fab, V domains shown) VH: EVQLKQSGPGLVAPSQSLSITCTVSGFSLSIYSVHWVRQPPGKGLEWLGMIWGGGSSDYNSALKSRLSISKDNSKSQVFLKMNSLQTDDTAMYYCARNGNFYAMDYWGQGTSVTVSS VL: QIVLTQSPAIMSASLGERVTMTCTASSSVSSSFLHWYQQKPGSSPQLWIYSTSNLASGVPARFSGSGSGTSYSLTISSMEAEDAATYYCHQYHHSPYMYTFGGGTKLEIK | 0.729 OD450nm | 0.833 ratio to WT
10 | parental mouse (KB001) Fab FASEBA, VL variant Y97K (Fab, V domains shown) VH: EVQLKQSGPGLVAPSQSLSITCTVSGFSLSIYSVHWVRQPPGKGLEWLGMIWGGGSSDYNSALKSRLSISKDNSKSQVFLKMNSLQTDDTAMYYCARNGNFYAMDYWGQGTSVTVSS VL: QIVLTQSPAIMSASLGERVTMTCTASSSVSSSFLHWYQQKPGSSPQLWIYSTSNLASGVPARFSGSGSGTSYSLTISSMEAEDAATYYCHQYHHSPKIYTFGGGTKLEIK | 0.654 OD450nm | 0.829 ratio to WT
11 | parental mouse (KB001) Fab FASEBA, VL variant I98V (Fab, V domains shown) VH: EVQLKQSGPGLVAPSQSLSITCTVSGFSLSIYSVHWVRQPPGKGLEWLGMIWGGGSSDYNSALKSRLSISKDNSKSQVFLKMNSLQTDDTAMYYCARNGNFYAMDYWGQGTSVTVSS VL: QIVLTQSPAIMSASLGERVTMTCTASSSVSSSFLHWYQQKPGSSPQLWIYSTSNLASGVPARFSGSGSGTSYSLTISSMEAEDAATYYCHQYHHSPYVYTFGGGTKLEIK | 0.832 OD450nm and 0.838 OD450nm and 0.787 OD450nm | 0.951 ratio to WT and 0.958 ratio to WT and 0.899 ratio to WT
12 | parental mouse (KB001) Fab FASEBA, VL variant Y97F (Fab, V domains shown) VH: EVQLKQSGPGLVAPSQSLSITCTVSGFSLSIYSVHWVRQPPGKGLEWLGMIWGGGSSDYNSALKSRLSISKDNSKSQVFLKMNSLQTDDTAMYYCARNGNFYAMDYWGQGTSVTVSS VL: QIVLTQSPAIMSASLGERVTMTCTASSSVSSSFLHWYQQKPGSSPQLWIYSTSNLASGVPARFSGSGSGTSYSLTISSMEAEDAATYYCHQYHHSPFIYTFGGGTKLEIK | 0.75 OD450nm and 0.756 OD450nm | 0.951 ratio to WT and 0.958 ratio to WT
13 | parental mouse (KB001) Fab FASEBA, VL variant T100I (Fab, V domains shown) VH: EVQLKQSGPGLVAPSQSLSITCTVSGFSLSIYSVHWVRQPPGKGLEWLGMIWGGGSSDYNSALKSRLSISKDNSKSQVFLKMNSLQTDDTAMYYCARNGNFYAMDYWGQGTSVTVSS VL: QIVLTQSPAIMSASLGERVTMTCTASSSVSSSFLHWYQQKPGSSPQLWIYSTSNLASGVPARFSGSGSGTSYSLTISSMEAEDAATYYCHQYHHSPYIYIFGGGTKLEIK | 0.493 OD450nm | 0.942 ratio to WT
14 | parental mouse (KB001) Fab FASEBA, VL variant Y97L (Fab, V domains shown) VH: EVQLKQSGPGLVAPSQSLSITCTVSGFSLSIYSVHWVRQPPGKGLEWLGMIWGGGSSDYNSALKSRLSISKDNSKSQVFLKMNSLQTDDTAMYYCARNGNFYAMDYWGQGTSVTVSS VL: QIVLTQSPAIMSASLGERVTMTCTASSSVSSSFLHWYQQKPGSSPQLWIYSTSNLASGVPARFSGSGSGTSYSLTISSMEAEDAATYYCHQYHHSPLIYTFGGGTKLEIK | 0.739 OD450nm | 0.937 ratio to WT
